{
  "source": "patent US20160184455A1",
  "target": "MaxiK channel of rat bladder detrusor smooth muscle (endogenous) (rat) (UniProt Q62976)",
  "sequence (Q62976 whole entry)": "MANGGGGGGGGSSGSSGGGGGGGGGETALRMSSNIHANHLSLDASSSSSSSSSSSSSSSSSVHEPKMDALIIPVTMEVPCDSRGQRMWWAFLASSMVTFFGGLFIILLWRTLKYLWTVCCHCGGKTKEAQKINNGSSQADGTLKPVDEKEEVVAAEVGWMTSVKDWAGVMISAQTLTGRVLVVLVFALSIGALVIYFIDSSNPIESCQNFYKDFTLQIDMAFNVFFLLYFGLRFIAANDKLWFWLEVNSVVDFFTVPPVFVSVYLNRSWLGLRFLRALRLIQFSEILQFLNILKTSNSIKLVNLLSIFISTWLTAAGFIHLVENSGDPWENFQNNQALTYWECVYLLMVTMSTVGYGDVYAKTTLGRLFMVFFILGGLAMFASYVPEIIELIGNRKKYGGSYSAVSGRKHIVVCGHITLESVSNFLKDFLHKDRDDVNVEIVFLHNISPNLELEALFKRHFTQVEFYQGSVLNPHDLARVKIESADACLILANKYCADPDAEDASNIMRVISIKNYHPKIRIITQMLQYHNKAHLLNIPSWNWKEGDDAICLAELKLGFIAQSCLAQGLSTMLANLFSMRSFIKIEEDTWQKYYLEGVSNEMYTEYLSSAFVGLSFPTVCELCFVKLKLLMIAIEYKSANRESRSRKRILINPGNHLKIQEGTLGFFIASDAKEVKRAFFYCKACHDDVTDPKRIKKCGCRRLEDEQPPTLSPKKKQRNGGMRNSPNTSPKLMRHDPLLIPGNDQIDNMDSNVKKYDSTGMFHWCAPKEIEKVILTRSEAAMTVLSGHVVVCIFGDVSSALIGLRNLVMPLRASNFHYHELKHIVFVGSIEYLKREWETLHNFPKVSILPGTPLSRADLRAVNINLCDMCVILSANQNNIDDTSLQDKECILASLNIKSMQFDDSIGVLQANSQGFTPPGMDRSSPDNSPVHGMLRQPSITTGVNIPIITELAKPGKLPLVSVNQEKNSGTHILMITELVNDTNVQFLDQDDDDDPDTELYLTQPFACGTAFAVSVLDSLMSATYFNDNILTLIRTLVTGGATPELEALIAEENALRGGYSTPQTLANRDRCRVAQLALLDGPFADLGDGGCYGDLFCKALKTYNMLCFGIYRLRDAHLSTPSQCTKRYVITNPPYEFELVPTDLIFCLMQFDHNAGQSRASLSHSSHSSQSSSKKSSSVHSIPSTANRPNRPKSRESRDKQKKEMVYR",
  "assay": "cell-based or functional assay",
  "data": [
    {"substance": "iberiotoxin (IBTX) (from UniProt P24663 1-37) (peptide)", "values": [
      {"measurement": "outward current in response to applied voltage, single whole cell patch clamp of detrusor cells before and after 300 nM IBTX", "result": "> 50", "unit": "%"}
    ]}
  ]
}
